In the nanobody polyreactivity screen of Harvey et al. (2022):

Test: yeast display, Sf9 membrane polyspecificity reagent, FACS + sequencing; frameworks hold sequencing errors
How it was run: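 Genes from sorted yeast were amplified by colony PCR, read by MiSeq 2 × 250 sequencing and filtered on CDR length. These cells carried a synthetic nanobody library in Saccharomyces cerevisiae BJ5465 and were sorted by FACS into low and high (top ~1%) gates on anti-HA and streptavidin fluorescence. Polyreactivity is labelled according to the gate of origin.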

Sequence | polyreactivity (PSR sort gate)
QVQLVESAGGLVQAGGSLRLSCAASGSTFVTNVMGWYRQAPGKERELVAAISYSGGNTYFEDSVKGRFTISRDYAKNTVYLQMNSLKPEDTAVYSCAASYKPFKKMGYWGQGTQVTVSS | high polyreactivity
QVQLVESGGGLVQAGGTLRLSCAASGFLFVFYDMGWYRQAPAKERELVAGITRNDGSTYYADSVKGRFKISRDNAKNTVYLLMNSLKPEDTAVYYCAADRVRRNDKLAYDYWGQGTQVTVSS | low polyreactivity
QVQLVESGGGLVQAGGSLRLSCAASGSIFKSYAMGLYRQAPGKEREFVASITKSGGTTYYADSVKGRFTISRDNAKNTVYLQMNSLKPEDTAVYYCAADWYRSSWTYNYWGQGTQVTVSS | low polyreactivity
QVQLVESGGGLVQAGGSLRLSCAASGSIFLGYTMGWYRPAPGKERELVAAISTRGGSTYYADSVKGRFTISRDNAKNTVYLQMNSLKPEDTAVYYCKARSRGRASGYDYWGQGTQVTVSS | high polyreactivity
QVQLVESGGGLVQAGGSLRLSCAASGAIFDWYAMGGDRPAPGKERELVADITWSGDSTYYADSVKGRFTISRDHAKNTVYLKMNSLKPEDTAVFYCAADIWFYTYYEYDYWGQGTQVTVSS | high polyreactivity
QVQLVESVGCLVQAGGSLRLSCAATVSIFDRYAMGWNRQPPGKESELVAAISKSGGRTYYADSVKGRFTISRDNAKNTVYLQMNSLKPEDSAVYDCAADPLLGYLSHYYWGQGTQVTVSS | high polyreactivity
QVQLVESGGGLVQAGGSLRLSCAASGFIFIGNTMGWYRQAPGKDRELVAAIRWSGGSTYYADSVKGRFTISRDNAKNTVYLQMNSLKPEDTAVYYCAARRWSKTRYYYWGQGTQVTVSS | high polyreactivity
QVQLVESGGGLVQAGGSLRLSCAASGRIFAVNAMGWYRQAPGKERELVASIRWSGGSTYYADSVKGRFTISRDNAKNTVYLQMNTLKPEDTAVYYCNKVRGKTYYGEGDYWGQGTQVTVSS | high polyreactivity
QVQLVESGGGLVQAGGSLRLSCAASGFTFRYYAMGWYRQAPGKERELVAAITSGDSTYYADSVKGRFTISRDNAKNTVYLQMNSLKPEDTAVYYCAAYYYGYDYWGQGTQVTVSS | high polyreactivity
QVQLVESGGGLVQAGGSLRISCAASGSIFRNYAMGWYRQAPGKERELVAAISRNGGTTYYADSVKGRFTISRDNAKNTVYLQMNSLKPEDTAVYYCARLYYTQKDSKTGYGYWGQGTQVTVSS | high polyreactivity
QVQLVESGGGLVQAGGSLRLSCAASGRIFTYNAMGWYRQAPGKERELVAAISYSGGRTDYADSVKGRFTISRDNAKNTVYLQMHSLKPEDTAVYYCAARPGPYWTVTFRSPKYYYWGQGTQVTVSS | high polyreactivity
QVQLVESGGGLVQAGGSLRLSCAASGRIFYVYAMGWYRQAPGKERELVAAITSSGGTTYYADSVKGRFTISRDNAKNTVYLQMNSLKPEDTAVYYCNLIYRYGWGDYWGQGTQVTVSS | high polyreactivity
QDQLVESGGGLVQAGGSLRLSCSASGRTFHRNAMGWYRQAPGKERESVAAITGDGRTNYADSVKGRFTISRDNAKNTVYLQMNSLKPEDNAVYYCAARFSYRSYDYWGQGTQVTVSS | low polyreactivity
QVQLVESGGGLVQAGGSLRLSCAASGRILKRNAMGWYRQAPGKERELVAAISWSTGTTYYADSVKGRFTISRDNAKNTVYLQMNSLKPEDTAVYYCAKQIVSGRRVDRNDYWGQGTQVTVSS | low polyreactivity
QVQLVESGAGLVQAGGSLSLSCAASGRTIVTNAMGWYRQAPGKERELVAAINGRGDNTYYADSVKGRFTISRDNAKNTFYLQMNSLKPEDTAVYYCAVRRGYHSHTKYYYWGLGTQVTVSS | high polyreactivity
QVQLVESGGGLVQAGGSLRLSCAASGRTFSSNAMGWYRQDPGKERELVASISFRGGRTYYADSVKGRFTISRDNAKNTVYLQMNSLKPEVTAVYYCVSGTKRTGYGYWGQGTQVTVSS | high polyreactivity
QVQLVESGGGIVQAGGSLRLSCAASGITFGRYVMGWYRQAPGKERELVAAISRSGGSTYYADSVKGRFTISRDNAKNTVYLQMNSLKPEDTAVYYCAADLRQTGYGWYDYWGQGTQVTVSS | high polyreactivity
QVQLVESGGGLVQAGGSLRLSCAPSGSIFPSYAMGWYRQAPGKERELVAAISRSAGSTYYADSVKGRFTISRDNAKNTVYLQMNSLKPEDTAVYYCAADGYSSRYGYDYWGQGTQVTVSS | low polyreactivity
QVQLVESGGGLVQAGGSLRFSCAASGFTLQQYTMGWYRQAPGKERELVAAISTSGVRTYYADSVKGRFTISRDNAKNTVYLQMNSLKPEDTAVYYCNAAWVYGIGWYSGYDYWGQGTQVTVSS | high polyreactivity
QVQLVESGGGLVQAGGSLRLSCAASGIIFFEYVMGWYRQAPGQERELVAAINRSGGRTYYADSVKGRFTISRDNAKNTVYLQMNSLKPEDTAVYYCAAEHYTGSGGYDYWGHGTQVTVSS | high polyreactivity
QVQLVESGGGLVQAGGSLRLSCAASGRIFTTYAMGWYRQAPGKERELVAAISRSGGSTYYADSVKGRFTISRDNAKNTVYLQMKSLKPEDTAVYYCAAVPTSNSFRSSFYYWGQGTQVTVSS | high polyreactivity
QVQLVESGGGLVQAGGSLRLSCAASGFTFGDYAMGWYRQAHGKERELVAAINGRSGSTYYPDSVNGRFTISRDNAKNTVYLQMNSLKPEDTAVYYCATRWRLPSRSNFDYWGQGTQVTLSS | low polyreactivity
